# Measured values: paper PMC2995471, “Identification of amino acid residues in protein SRP72 required for binding to a kinked 5e motif of the human signal recognition particle RNA”
# Substitutions are numbered along the chain they refer to.
# T1: 72e (human, UniProt O76094 531-617)
# T1 sequence: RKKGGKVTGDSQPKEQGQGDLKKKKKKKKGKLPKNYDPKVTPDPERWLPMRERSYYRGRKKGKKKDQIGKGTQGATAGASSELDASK
# T2: 72f (human, UniProt O76094 531-587)
# T2 sequence: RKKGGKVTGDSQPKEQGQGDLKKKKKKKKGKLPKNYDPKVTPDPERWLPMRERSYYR
# T3: 72k (human, UniProt O76094 545-590)
# T3 chain: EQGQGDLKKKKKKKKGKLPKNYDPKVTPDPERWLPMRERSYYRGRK
# T4: 72j (human, UniProt O76094 541-590)
# T4 chain: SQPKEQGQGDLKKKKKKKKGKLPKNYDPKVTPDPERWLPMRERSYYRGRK
# T5: 72h 587-RG-588 to AA (human, UniProt O76094 531-590, R587A;G588A)
# T5 sequence: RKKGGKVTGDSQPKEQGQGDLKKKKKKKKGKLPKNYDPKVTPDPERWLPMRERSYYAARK
# T6: 72h 577-WL-578 to AA (human, UniProt O76094 531-590, W577A;L578A)
# T6 sequence: T5 sequence with W47A, L48A, A57R, A58G
# T7: 72h 589-RK-590 to AA (human, UniProt O76094 531-590, R589A;K590A)
# T7 sequence: T5 sequence with A57R, A58G, R59A, K60A
# T8: 72g (human, UniProt O76094 531-585)
# T8 sequence: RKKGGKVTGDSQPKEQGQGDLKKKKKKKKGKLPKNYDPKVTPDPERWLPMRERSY
# T9: 72h 583-RS-584 to AA (human, UniProt O76094 531-590, R583A;S584A)
# T9 sequence: T5 sequence with R53A, S54A, A57R, A58G
# T10: 72h (human, UniProt O76094 531-590)
# T10 sequence: T5 sequence with A57R, A58G
# T11: 72h del 555-KK-556 (human, UniProt O76094 531-590, del555-556)
# T11 sequence: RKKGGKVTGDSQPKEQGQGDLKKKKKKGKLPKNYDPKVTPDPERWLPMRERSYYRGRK
# T12: 72h 579-PM-580 to AA (human, UniProt O76094 531-590, P579A;M580A)
# T12 sequence: T5 sequence with P49A, M50A, A57R, A58G
# T13: 72h M580A (human, UniProt O76094 531-590, M580A)
# T13 sequence: T5 sequence with M50A, A57R, A58G
# T14: 72h 581-RE-582 to AA (human, UniProt O76094 531-590, R581A;E582A)
# T14 sequence: T5 sequence with R51A, E52A, A57R, A58G
# T15: 72h P579A (human, UniProt O76094 531-590, P579A)
# T15 sequence: T5 sequence with P49A, A57R, A58G
# T16: 72h 585-YY-586 to AA (human, UniProt O76094 531-590, Y585A;Y586A)
# T16 sequence: T5 sequence with Y55A, Y56A, A57R, A58G
# Experiments:
# Experiment in all cases: Ni-NTA magnetic bead pull-down; EMSA: 50 mM Tris-HCl pH 7.9, 300 mM KOAc, 5 mM MgCl2, 16% glycerol, 10 min 37 C; bead pull-down: 82.5 ng 5e RNA, 0.056-1.8 uM protein, eluted with 250 mM imidazole (binding buffer not given, as in ref 16)
# 72e = target: T1, 72e; conditions: protein: recombinant; tags: N-terminal His6; hairpin with 11-nt 5e internal motif (K-turn)
# 72f = target: T2, 72f; conditions: protein: recombinant; tags: N-terminal His6; hairpin with 11-nt 5e internal motif (K-turn)
# 72k = target: T3, 72k; conditions: protein: recombinant; tags: His6; hairpin with 11-nt 5e internal motif (K-turn)
# 72j = target: T4, 72j; conditions: protein: recombinant; tags: His6; hairpin with 11-nt 5e internal motif (K-turn)
# 72h 587-RG-588 to AA = target: T5, 72h 587-RG-588 to AA; conditions: protein: recombinant; tags: His6; hairpin with 11-nt 5e internal motif (K-turn)
# 72h 577-WL-578 to AA = target: T6, 72h 577-WL-578 to AA; conditions: protein: recombinant; tags: His6; hairpin with 11-nt 5e internal motif (K-turn)
# 72h 589-RK-590 to AA = target: T7, 72h 589-RK-590 to AA; conditions: protein: recombinant; tags: His6; hairpin with 11-nt 5e internal motif (K-turn)
# 72g = target: T8, 72g; conditions: protein: recombinant; tags: N-terminal His6; hairpin with 11-nt 5e internal motif (K-turn)
# 72h 583-RS-584 to AA = target: T9, 72h 583-RS-584 to AA; conditions: protein: recombinant; tags: His6; hairpin with 11-nt 5e internal motif (K-turn)
# 72h = target: T10, 72h; conditions: protein: recombinant; tags: His6; hairpin with 11-nt 5e internal motif (K-turn)
# 72h del 555-KK-556 = target: T11, 72h del 555-KK-556; conditions: protein: recombinant; tags: His6; hairpin with 11-nt 5e internal motif (K-turn)
# 72h 579-PM-580 to AA = target: T12, 72h 579-PM-580 to AA; conditions: protein: recombinant; tags: His6; hairpin with 11-nt 5e internal motif (K-turn)
# 72h M580A = target: T13, 72h M580A; conditions: protein: recombinant; tags: His6; hairpin with 11-nt 5e internal motif (K-turn)
# 72h 581-RE-582 to AA = target: T14, 72h 581-RE-582 to AA; conditions: protein: recombinant; tags: His6; hairpin with 11-nt 5e internal motif (K-turn)
# 72h P579A = target: T15, 72h P579A; conditions: protein: recombinant; tags: His6; hairpin with 11-nt 5e internal motif (K-turn)
# 72h 585-YY-586 to AA = target: T16, 72h 585-YY-586 to AA; conditions: protein: recombinant; tags: His6; hairpin with 11-nt 5e internal motif (K-turn)
binder,measurement,setting,value
GGUCCGGGUGUCCGCACUAGGGAGCUAGUGGGAUCGCGCCUGGAUC (structured_RNA) [5e SRP RNA],binding result,72e,binds
same,binding result,72f,binds
same,binding result,72k,binds
same,binding result,72j,binds
same,binding result,72h 587-RG-588 to AA,binds
same,binding result,72h 577-WL-578 to AA,no binding
same,binding result,72h 589-RK-590 to AA,binds
same,binding result,72g,no binding
same,binding result,72h 583-RS-584 to AA,no binding
same,binding result,72h,binds
same,binding signal,72h del 555-KK-556,46 ± 12 % of wild-type binding
same,binding signal,72h 579-PM-580 to AA,14 ± 9 % of wild-type binding
same,binding signal,72h M580A,100 ± 4 % of wild-type binding
same,binding signal,72h 581-RE-582 to AA,69 ± 14 % of wild-type binding
same,binding signal,72h P579A,26 ± 1 % of wild-type binding
same,binding signal,72h 585-YY-586 to AA,60 ± 3 % of wild-type binding
